Here are results for ten molecules from patent publication US20110129457A1 (CURIS, published 2011).

One may read the IC50 as the midpoint of a concentration-inhibition curve. Higher therefore signals lower potency.

To fix the notation:
T1: full length human Patched-1 on 293 cells (Ptch1-293 clone 10) (human, UniProt Q13635 1-1447)
T1 construct: whole, on cells; also called Ptch1 expressing cells; Ptch1-293 cells
T1 sequence (looked up): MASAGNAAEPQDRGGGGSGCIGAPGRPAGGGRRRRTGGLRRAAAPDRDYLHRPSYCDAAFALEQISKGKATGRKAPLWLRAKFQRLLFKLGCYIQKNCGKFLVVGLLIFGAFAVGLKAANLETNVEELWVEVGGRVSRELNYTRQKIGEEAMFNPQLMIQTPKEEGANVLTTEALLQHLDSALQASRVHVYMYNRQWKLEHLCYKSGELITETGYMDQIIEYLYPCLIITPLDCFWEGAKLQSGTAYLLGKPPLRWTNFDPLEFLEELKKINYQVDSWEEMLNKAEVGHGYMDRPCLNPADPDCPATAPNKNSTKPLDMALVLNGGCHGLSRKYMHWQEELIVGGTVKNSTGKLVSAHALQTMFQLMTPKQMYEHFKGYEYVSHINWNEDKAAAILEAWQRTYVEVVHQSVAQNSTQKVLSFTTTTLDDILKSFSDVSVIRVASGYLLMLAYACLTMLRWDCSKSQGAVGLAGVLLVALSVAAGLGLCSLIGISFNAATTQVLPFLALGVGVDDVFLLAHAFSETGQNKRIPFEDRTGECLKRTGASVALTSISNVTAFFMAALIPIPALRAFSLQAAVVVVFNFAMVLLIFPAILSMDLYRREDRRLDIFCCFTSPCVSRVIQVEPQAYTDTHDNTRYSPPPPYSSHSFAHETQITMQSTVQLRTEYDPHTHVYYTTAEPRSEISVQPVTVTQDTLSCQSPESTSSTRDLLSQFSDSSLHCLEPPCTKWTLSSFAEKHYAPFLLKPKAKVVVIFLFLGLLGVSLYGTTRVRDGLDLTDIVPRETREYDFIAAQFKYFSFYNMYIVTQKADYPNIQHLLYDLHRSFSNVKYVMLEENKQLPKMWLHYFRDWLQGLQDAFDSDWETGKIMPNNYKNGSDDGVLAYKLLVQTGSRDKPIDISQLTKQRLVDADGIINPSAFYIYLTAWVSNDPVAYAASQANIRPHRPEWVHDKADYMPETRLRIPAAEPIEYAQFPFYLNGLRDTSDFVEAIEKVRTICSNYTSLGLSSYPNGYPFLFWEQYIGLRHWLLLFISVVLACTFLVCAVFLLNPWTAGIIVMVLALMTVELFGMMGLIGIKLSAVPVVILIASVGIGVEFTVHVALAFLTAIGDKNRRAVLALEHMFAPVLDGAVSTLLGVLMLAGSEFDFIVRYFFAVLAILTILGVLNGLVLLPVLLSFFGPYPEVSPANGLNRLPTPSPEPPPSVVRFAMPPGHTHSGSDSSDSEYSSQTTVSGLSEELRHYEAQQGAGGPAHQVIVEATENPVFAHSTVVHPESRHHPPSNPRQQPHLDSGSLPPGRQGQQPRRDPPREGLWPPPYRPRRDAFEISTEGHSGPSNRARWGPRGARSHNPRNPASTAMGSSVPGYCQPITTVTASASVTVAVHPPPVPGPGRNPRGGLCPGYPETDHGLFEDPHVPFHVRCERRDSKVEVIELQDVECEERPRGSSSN

B1: Human Ihh (residues 29-202), N-terminal His6-tag (ligand)
chain: not shown
notes: range 29-202; also called His6-Ihh; Indian Hedgehog
B2: Hhip1β12 (β-propeller-EGF1-EGF2, residues 193-667), C-terminal His6-tag (receptor)
chain: SNYLDQMEEYDKVEEISRKHKHNCFCIQEVVSGLRQPVGALHSGDGSQRLFILEKEGYVKILTPEGEIFKEPYLDIHKLVQSGIKGGDERGLLSLAFHPNYKKNGKLYVSYTTNQERWAIGPHDHILRVVEYTVSRKNPHQVDLRTARVFLEVAELHRKHLGGQLLFGPDGFLYIILGDGMITLDDMEEMDGLSDFTGSVLRLDVDTDMCNVPYSIPRSNPHFNSTNQPPEVFAHGLHDPGRCAVDRHPTDININLTILCSDSNGKNRSSARILQIIKGKDYESEPSLLEFKPFSNGPLVGGFVYRGCQSERLYGSYVFGDRNGNFLTLQQSPVTKQWQEKPLCLGTSGSCRGYFSGHILGFGEDELGEVYILSSSKSMTQTHNGKLYKIVDPKRPLMPEECRATVQPAQTLTSECSRLCRNGYCTPTGKCCCSPGWEGDFCRTAKCEPACRHGGVCVRPNKCLCKKGYLGPQCEHHHHHH
B3: Hhip1β12 D383R (receptor)
chain: B2 chain with D191R
B4: Hhip1β12 D383A (receptor)
chain: B2 chain with D191A
B5: octyl-Ihh (octylated Ihh wildtype) (ligand)
chain: not shown
modifications: octylated (site not stated)
B6: octyl-T154I (octylated Ihh T154I) (ligand)
chain: not shown
modifications: octylated (site not stated)
B7: Ihh T154I (type A1 brachydactyly mutant) (ligand)
chain: not shown
B8: Hip-L2 peptide (GDGMITLDDMEEMDGLSDFTG) of the competition ELISA (peptide)
peptide: GDGMITLDDMEEMDGLSDFTG
notes: also called Hhip1-L2 peptide; peptide derived from the Hhip1β12 L2 loop
B9: Hhip1β1 (β-propeller-EGF1, residues 193-637), C-terminal His6-tag (receptor)
chain: SNYLDQMEEYDKVEEISRKHKHNCFCIQEVVSGLRQPVGALHSGDGSQRLFILEKEGYVKILTPEGEIFKEPYLDIHKLVQSGIKGGDERGLLSLAFHPNYKKNGKLYVSYTTNQERWAIGPHDHILRVVEYTVSRKNPHQVDLRTARVFLEVAELHRKHLGGQLLFGPDGFLYIILGDGMITLDDMEEMDGLSDFTGSVLRLDVDTDMCNVPYSIPRSNPHFNSTNQPPEVFAHGLHDPGRCAVDRHPTDININLTILCSDSNGKNRSSARILQIIKGKDYESEPSLLEFKPFSNGPLVGGFVYRGCQSERLYGSYVFGDRNGNFLTLQQSPVTKQWQEKPLCLGTSGSCRGYFSGHILGFGEDELGEVYILSSSKSMTQTHNGKLYKIVDPKRPLMPEECRATVQPAQTLTSECSRLCRNGYCTPTGKCCCSPGWEGDFCRTAHHHHHH
B10: Human Dhh (residues 24-198), N-terminal His6-tag (ligand)
chain: not shown
notes: range 24-198; also called Desert Hedgehog

Numbering of substitutions follows the chain as printed. Names and notes keep the numbering of the source.

Test [1] addresses T1, full length human Patched-1 on 293 …. Description: FACS competition: 1 nM Shh649 with inhibitor on Ptch1 expressing cells.
Test [2] addresses B2. Description: competition ELISA as in paragraph 570; the legend gives Ihh and Shh the other way round.
Test [3] deals with B2. Description: competition ELISA: unlabeled Hh against 5 nM biotinylated-ShhN-Cys for immobilized Hhip1β12. A general note: An ELISA detects its analyte on a solid surface through an enzyme-linked reagent.
The target of test [4] is T1, full length human Patched-1 on 293 …. As to the kind of experiment: FACS competition: unlabeled Ihh against 1 nM Shh649 for Ptch1-expressing 293 cells.
Test [5] addresses B2. Description: competition ELISA: unlabeled Ihh against 5 nM biotinylated ShhN-Cys for immobilized Hhip1β12.
Test [6] has as its target fully lipid-modified Shh secreted by human HT29 cells (human, UniProt Q15465 24-197, N-terminal palmitoyl and C-terminal cholesterol modifications). As to the kind of experiment: cell-based or functional assay.
Test [7] has as its target T2, Shh-Flag (human Shh residues 25-197 with C-terminal Flag-Tag) (human, UniProt Q15465 25-197).
T2 construct: range 25-197; not shown: C-terminal Flag-Tag
Description: competition ELISA: Hip-L2 peptide dilution with 800 nM Hhip protein on Shh-Flag captured by anti-Flag M2, anti-His-HRP detection.

B1: the IC50 in test [1] turned out to be 0.0011 µM; in test [2], 0.053 µM; in test [3], 0.087 µM. The “IC50 (read off the curve)” value in test [4] is about 0.003 µM; in test [5], about 0.09 µM. As to B2, the “IC50, inhibition of Gli-luciferase activity in HT29/S12 co-culture” value in test [6] worked out at 0.005 µM.

Turning to B3, in test [6], the “IC50, Gli-luciferase co-culture assay” value is 0.057 µM and the “fold change of IC50, Gli-luciferase co-culture assay” value was about 13 fold. Consider B4, for which, in test [6], the “IC50, Gli-luciferase co-culture assay” value is about 0.01 µM and the “fold of IC50 against wildtype Hipβ12, Gli-luciferase co-culture assay” value turned out to be 2 fold.

In turn, B5 returned an IC50 in test [1] of 0.00064 µM. Still for that read-out and setting: the figure for B6 is 0.01 µM; for B7 it is 0.14 µM.

In test [7], B8 yielded a 50% inhibitory concentration (IC50) of 150 µM. As for B9, in test [6], the “IC50, inhibition of Gli-luciferase activity in HT29/S12 co-culture” value stood at 0.0203 µM and the “fold of IC50 against Hhip1ECD, Gli-luciferase co-culture” value was about 4 fold. With B10, in test [3], the half-inhibitory concentration (IC50) stood at 0.04 µM.
